Experimental data from patent US20170247441A1 (Hoffmann-La Roche, published 2017).
Substitutions are numbered along the chain they refer to. Names and notes keep the numbering of the source.

B1: 0025 (Fab)
heavy: not shown
light: SYVLTQPPSVSVAPGQTARITCGGNNIGSKSVHWYQQKPGQAPVLVVYDDSDRPSGIPERFSGSNSGNTATLTISRVEAGDEADYYCQVWDSSSDHWVFGGGTKLTVLSSASTKGPSVFPLAPSSKSTSGGTAALGCLVKDYFPEPVTVSWNSGALTSGVHTFPAVLQSSGLYSLSSVVTVPSSSLGTQTYICNVNHKPSNTKVDKKVEPKSC
notes: CrossFab CL-CH1, valency 1; differences VH: T28N, T30V; VL: wt
B2: XAng2-0099 (antibody)
heavy: not shown
light: B1 light
notes: CrossMab CL-CH1, valency for ANG2 2; differences VH: S100dP, G100jA, T28N, T30A; VL: wt
B3: Xang2-0165 (bispecific antibody, human IgG1, kappa, L234A L235A)
heavy 1: not shown
light 1: B1 light with D50T
heavy 2: EVQLVESGGGLVQPGGSLRLSCAASGYDFTHYGMNWVRQAPGKGLEWVGWINTYTGEPTYAADFKRRFTFSLDTSKSTAYLQMNSLRAEDTAVYYCAKYPYYYGTSHWYFDVWGQGTLVTVSSASTKGPSVFPLAPSSKSTSGGTAALGCLVKDYFPEPVTVSWNSGALTSGVHTFPAVLQSSGLYSLSSVVTVPSSSLGTQTYICNVNHKPSNTKVDKKVEPKSCDKTHTCPPCPAPEAAGGPSVFLFPPKPKDTLMASRTPEVTCVVVDVSHEDPEVKFNWYVDGVEVHNAKTKPREEQYNSTYRVVSVLTVLAQDWLNGKEYKCKVSNKALGAPIEKTISKAKGQPREPQVYTLPPCRDELTKNQVSLWCLVKGFYPSDIAVEWESNGQPENNYKTTPPVLDSDGSFFLYSKLTVDKSRWQQGNVFSCSVMHEALHNAYTQKSLSLSPGK
light 2: not shown
notes: ANG2/VEGF bispecific CrossMab CL-CH1, valency for ANG2 1; ANG2 VH: S100dP, G100jA, T30A, T28N; VL: D50T; VEGF: wt2
B4: XAng2-0075 (Fab)
heavy: not shown
light: B1 light with D50T
notes: CrossFab CL-CH1, valency 1; differences VH: S100dP, G100jA, T28N, T30A, D100bS; VL: D50T
B5: XAng2-0026 (Fab)
heavy: not shown
light: B1 light
notes: CrossFab CL-CH1, valency 1; differences VH: T28N, T30A; VL: wt
B6: 0060 (Fab)
heavy: not shown
light: B1 light with D50T
notes: CrossFab CL-CH1, valency 1; differences VH: S100dP, G100jA, T28N, T30A, D100bE; VL: D50T
B7: 0074 (Fab)
heavy: not shown
light: B1 light
notes: CrossFab CL-CH1, valency 1; differences VH: S100dP, G100jA, T28N, T30A, D100bS; VL: wt
B8: Xang2-0166 (bispecific antibody, human IgG1, kappa, L234A L235A)
heavy 1: not shown
light 1: B1 light with D50T
heavy 2: B3 heavy 2
light 2: not shown
notes: ANG2/VEGF bispecific CrossMab CL-CH1, valency for ANG2 1; ANG2 VH: S100dP, G100jA, T30A, T28N, D100bS; VL: D50T; VEGF: wt2
B9: 0027 (Fab)
heavy: not shown
light: B1 light
notes: CrossFab CL-CH1, valency 1; differences VH: T28N, T30K; VL: wt
B10: 0058 (Fab)
heavy: not shown
light: B1 light
notes: CrossFab CL-CH1, valency 1; differences VH: S100dP, G100jA, T28N, T30A, D100bT; VL: wt
B11: XAng2-0041 (Fab)
heavy: not shown
light: B1 light
notes: CrossFab CL-CH1, valency 1; differences VH: S100dP, G100jA, T28N, T30A; VL: wt
B12: XAng2-0101 (antibody)
heavy: not shown
light: B1 light with D50T
notes: CrossMab CL-CH1, valency for ANG2 2; differences VH: S100dP, G100jA, T28N, T30A, D100bE; VL: D50T
B13: 0061 (Fab)
heavy: not shown
light: B1 light with D50T
notes: CrossFab CL-CH1, valency 1; differences VH: S100dP, G100jA, T28N, T30A, D100bT; VL: D50T
B14: XAng2-0017 (Fab)
heavy: not shown
light: B1 light
notes: CrossFab CL-CH1, valency 1; VL: wt
B15: 0057 (Fab)
heavy: not shown
light: B1 light
notes: CrossFab CL-CH1, valency 1; differences VH: S100dP, G100jA, T28N, T30A, D100bE; VL: wt
B16: 0028 (Fab)
heavy: not shown
light: B1 light
notes: CrossFab CL-CH1, valency 1; differences VH: T30K; VL: wt
B17: XAng2-0100 (antibody)
heavy: not shown
light: B1 light with D50T
notes: CrossMab CL-CH1, valency for ANG2 2; differences VH: S100dP, G100jA, T28N, T30A; VL: D50T
B18: XAng2-0156 (Fab)
heavy: not shown
light: B1 light with S1Q, Y2P, V3G, D50T, W97Y, G101T, L105V
notes: as for B4
B19: XAng2-0155 (Fab)
heavy: not shown
light: B1 light with S1Q, Y2P, V3G, D50T, W97Y, G101T, L105V
notes: CrossFab CL-CH1, valency 1; differences VH: S100dP, G100jA, T28N, T30A; VL: D50T
B20: 0042 (Fab)
heavy: not shown
light: B1 light
notes: CrossFab CL-CH1, valency 1; differences VH: S100dP, G100jA, T28N, T30K; VL: wt
B21: XAng2-0090 (Fab)
heavy: not shown
light: B1 light with D50T
notes: as for B19
B22: 0040 (Fab)
heavy: not shown
light: B1 light
notes: CrossFab CL-CH1, valency 1; differences VH: S100dP, G100jA, T28N, T30V; VL: wt
B23: XAng2-0033 (Fab)
heavy: not shown
light: B1 light
notes: CrossFab CL-CH1, valency 1; differences VH: T28N, S100dP, G100jA; VL: wt

Legend:
[1] = target: T1, human ANG2-RBD-Fc-region fusion (human, UniProt O15123 275-496, limits assumed); test: SPR, human ANG2-RBD-Fc captured, 1:1 model
T1 construct: not shown: Fc-region
T1 sequence: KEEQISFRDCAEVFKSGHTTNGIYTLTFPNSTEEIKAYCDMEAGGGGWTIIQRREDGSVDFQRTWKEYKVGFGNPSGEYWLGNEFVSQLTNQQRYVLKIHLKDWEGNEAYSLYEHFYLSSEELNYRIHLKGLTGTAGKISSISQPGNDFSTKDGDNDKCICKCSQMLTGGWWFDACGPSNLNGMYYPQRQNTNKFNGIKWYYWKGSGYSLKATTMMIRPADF

[2] = target: T1, human ANG2-RBD-Fc-region fusion; test: SPR, human ANG2; bivalent CrossMab, avidity
[3] = target: T1, human ANG2-RBD-Fc-region fusion; test: SPR, human ANG2; bivalent CrossMab, avidity; remark: listed apart in the source
[4] = target: T1, human ANG2-RBD-Fc-region fusion; test: SPR, human ANG2; ANG2/VEGF bispecific CrossMab
[5] = target: T2, cynomolgus ANG2-RBD-Fc-region fusion (cynomolgus); test: SPR, cynomolgus ANG2-RBD-Fc captured, 1:1 model
T2 construct: domain: RBD
Protocol: (§1) HBS-N (10 mM HEPES, 150 mM NaCl pH 7.4, GE Healthcare) was used as running buffer during the immobilization procedure. For the following kinetic characterization, sample and running buffer was HBS-P (10 mM HEPES, 150 mM NaCl pH 7.4, 0.05% Surfactant P20; GE Healthcare). The flow cell was set to 25° C.—and the sample block was set to 12° C.—and primed with running buffer twice prior to kinetic characterization.
(§2) Association was measured by injection of the Cross-Fabs in various concentrations in solution for 90 sec. at a flow rate of 90 μl/min starting with 300 nM in serial 1:3 dilutions. The dissociation phase was monitored for up to 600 sec. and triggered by switching from the sample solution to running buffer. All surfaces were regenerated by 60 sec. washing with a 3 M MgCl₂ solution at a flow rate of 5 μl/min. Bulk refractive index differences were corrected by subtracting the response obtained from an anti-human IgG antibody (Fc) surface. Blank injections were also subtracted (=double referencing). For calculation of KD and other kinetic parameters the Langmuir 1:1 model was used.

[6] = target: T1, human ANG2-RBD-Fc-region fusion; test: SPR, human ANG2-RBD-Fc captured, 1:1 model; remark: listed apart in the source
Protocol: as §1, §2

[7] = target: T3, ANG2 (R&D Systems, Cat#623-CF) (human, UniProt O15123 19-496); test: cell-based or functional assay
T3 sequence: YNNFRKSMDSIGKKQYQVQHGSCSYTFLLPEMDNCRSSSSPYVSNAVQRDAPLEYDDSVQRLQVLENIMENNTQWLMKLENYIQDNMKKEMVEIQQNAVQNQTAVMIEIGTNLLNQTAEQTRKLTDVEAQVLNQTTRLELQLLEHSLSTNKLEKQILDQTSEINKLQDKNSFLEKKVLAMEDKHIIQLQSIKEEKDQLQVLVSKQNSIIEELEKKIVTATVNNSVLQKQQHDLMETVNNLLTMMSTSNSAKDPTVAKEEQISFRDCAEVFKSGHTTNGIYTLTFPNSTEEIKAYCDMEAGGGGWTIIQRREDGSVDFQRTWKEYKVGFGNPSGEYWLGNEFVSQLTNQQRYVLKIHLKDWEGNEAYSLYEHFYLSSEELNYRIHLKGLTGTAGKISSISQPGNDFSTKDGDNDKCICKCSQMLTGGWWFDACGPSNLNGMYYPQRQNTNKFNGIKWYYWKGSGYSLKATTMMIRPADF

Binder | koff [1] | kon [1] | t1/2 [1] | other results
B1 | 0.0702 s⁻¹ | 1.87e+06 M⁻¹ s⁻¹ | 10 s | 
B2 |  |  |  | koff [2]: 0.00011 s⁻¹; kon [2]: 2.61e+07 M⁻¹ s⁻¹; t1/2 (S) [2]: 1.75 h; koff [3]: 0.00011 s⁻¹; kon [3]: 2.61e+07 M⁻¹ s⁻¹
B3 |  |  |  | Kd [4]: 4 nM; koff [4]: 0.00112 s⁻¹; kon [4]: 302000 M⁻¹ s⁻¹; t1/2 [4]: 619 s
B4 | 0.031 s⁻¹ | 2.22e+06 M⁻¹ s⁻¹ | 22 s | Kd [5]: 24 nM; koff [5]: 0.0325 s⁻¹; kon [5]: 1.34e+06 M⁻¹ s⁻¹; t½ [5]: 21 s; koff [6]: 0.031 s⁻¹; kon [6]: 2.22e+06 M⁻¹ s⁻¹; t½ [6]: 22 s; relative biological activity [%] [7]: 128%
B5 | 0.0371 s⁻¹ | 2.03e+06 M⁻¹ s⁻¹ | 19 s | 
B6 | 0.0786 s⁻¹ | 3.72e+06 M⁻¹ s⁻¹ | 9 s | 
B7 | 0.0366 s⁻¹ | 2.27e+06 M⁻¹ s⁻¹ | 19 s | 
B8 |  |  |  | Kd [4]: 49 nM; koff [4]: 0.0135 s⁻¹; kon [4]: 275000 M⁻¹ s⁻¹; t1/2 [4]: 51 s
B9 | 0.165 s⁻¹ | 2.4e+06 M⁻¹ s⁻¹ | 4 s | 
B10 | 0.0383 s⁻¹ | 1.8e+06 M⁻¹ s⁻¹ | 18 s | 
B11 | 0.00317 s⁻¹ | 3.85e+06 M⁻¹ s⁻¹ | 219 s | Kd [5]: 2 nM; koff [5]: 0.0036 s⁻¹; kon [5]: 2.14e+06 M⁻¹ s⁻¹; t½ [5]: 193 s; koff [6]: 0.00317 s⁻¹; kon [6]: 3.85e+06 M⁻¹ s⁻¹; t½ [6]: 219 s; relative biological activity [%] [7]: 838%
B12 |  |  |  | koff [2]: 0.00012 s⁻¹; kon [2]: 1.83e+07 M⁻¹ s⁻¹; t1/2 (S) [2]: 1.6 h; koff [3]: 0.00012 s⁻¹; kon [3]: 1.83e+07 M⁻¹ s⁻¹
B13 | 0.0314 s⁻¹ | 1.8e+06 M⁻¹ s⁻¹ | 22 s | 
B14 | 0.0357 s⁻¹ | 3.03e+06 M⁻¹ s⁻¹ | 19 s | 
B15 | 0.0948 s⁻¹ | 3.28e+06 M⁻¹ s⁻¹ | 7 s | 
B16 | 0.259 s⁻¹ | 1.81e+06 M⁻¹ s⁻¹ | 3 s | 
B17 |  |  |  | koff [2]: 0.000167 s⁻¹; kon [2]: 2.06e+07 M⁻¹ s⁻¹; t1/2 (S) [2]: 1.15 h; koff [3]: 0.000167 s⁻¹; kon [3]: 2.06e+07 M⁻¹ s⁻¹
B18 | 0.0031 s⁻¹ | 675000 M⁻¹ s⁻¹ |  | t1/2 (S) [1]: 224 s
B19 | 0.0319 s⁻¹ | 746000 M⁻¹ s⁻¹ |  | t1/2 (S) [1]: 22 s
B20 | 0.0128 s⁻¹ | 3.22e+06 M⁻¹ s⁻¹ | 54 s | 
B21 | 0.00253 s⁻¹ | 2.16e+06 M⁻¹ s⁻¹ | 274 s | Kd [5]: 2 nM; koff [5]: 0.00308 s⁻¹; kon [5]: 2.02e+06 M⁻¹ s⁻¹; t½ [5]: 225 s; koff [6]: 0.00253 s⁻¹; kon [6]: 2.16e+06 M⁻¹ s⁻¹; t½ [6]: 274 s; relative biological activity [%] [7]: 706%
B22 | 0.00592 s⁻¹ | 2.59e+06 M⁻¹ s⁻¹ | 117 s | Kd [1]: 2.3 nM
B23 | 0.00225 s⁻¹ | 753000 M⁻¹ s⁻¹ | 308 s | 
